Reference: the supplement of paper PMC9112550, “Optimization of the antimicrobial peptide Bac7 by deep mutational scanning” (BMC Biology, 2022)

Test system: Escherichia coli TOP10
Assay: shrunken log2 fold change of peptide-encoding DNA abundance (4.5 h post-induction vs induction); higher = less antimicrobial activity (less host growth inhibition)
Conditions: time post-induction: 4.5 h; library: site-saturation at positions 5, 18, 19, 20
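Also: peptides expressed intracellularly from a pBAD plasmid library in pooled LB shake-flask culture, induced with 0.3% L-arabinose, DNA abundance read by NGS, three biological replicates, DESeq2 with apeglm shrinkage.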

Sequence	shrunken log2 fold change
RRIRHRPPRLPRPRPRPRARPRP	0.814
RRIRWRPPRLPRPRPRPRVPPRP	0.444
RRIRYRPPRLPRPRPRPIFFPRP	-0.353
RRIRWRPPRLPRPRPRPPMSPRP	0.095
RRIRRRPPRLPRPRPRPKCIPRP	-0.019
RRIRVRPPRLPRPRPRPAACPRP	0.244
RRIRWRPPRLPRPRPRPMSQPRP	0.0791
RRIRGRPPRLPRPRPRPYYHPRP	-0.204
RRIRDRPPRLPRPRPRPNMMPRP	0.0387
RRIRDRPPRLPRPRPRPEPEPRP	0.579
RRIRFRPPRLPRPRPRPTPNPRP	0.296
RRIRQRPPRLPRPRPRPGTPPRP	0.000485
RRIRRRPPRLPRPRPRPQDAPRP	0.427
RRIRERPPRLPRPRPRPSLVPRP	-0.0847
RRIRFRPPRLPRPRPRPFYTPRP	-0.89
RRIRVRPPRLPRPRPRPYEHPRP	-0.118
RRIRVRPPRLPRPRPRPPDHPRP	0.271
RRIRARPPRLPRPRPRPEKFPRP	-0.0388
RRIRPRPPRLPRPRPRPGKTPRP	0.294
RRIRVRPPRLPRPRPRPEGKPRP	0.217
RRIRWRPPRLPRPRPRPRAWPRP	0.124
RRIRIRPPRLPRPRPRPTAHPRP	-0.313
RRIRARPPRLPRPRPRPRYKPRP	0.0679
RRIRCRPPRLPRPRPRPMVYPRP	-0.187
RRIRPRPPRLPRPRPRPMCNPRP	-0.075

Sequence	shrunken log2 fold change
RRIRDRPPRLPRPRPRPPPDPRP	1.14
RRIRGRPPRLPRPRPRPMNTPRP	0.632
RRIRNRPPRLPRPRPRPSGTPRP	-0.217
RRIRERPPRLPRPRPRPSFEPRP	-0.132
RRIRMRPPRLPRPRPRPDMMPRP	0.187
RRIRWRPPRLPRPRPRPCHAPRP	-0.253
RRIRLRPPRLPRPRPRPLNYPRP	-0.501
RRIRIRPPRLPRPRPRPNAEPRP	-0.151
RRIRVRPPRLPRPRPRPSHYPRP	-0.68
RRIRRRPPRLPRPRPRPKLPPRP	0.369
RRIRPRPPRLPRPRPRPTCNPRP	-0.142
RRIRWRPPRLPRPRPRPMVVPRP	0.026
RRIRPRPPRLPRPRPRPQPCPRP	-0.0627
RRIRSRPPRLPRPRPRPADAPRP	0.0403
RRIRTRPPRLPRPRPRPRGTPRP	0.197
RRIRTRPPRLPRPRPRPCCDPRP	-0.151
RRIRMRPPRLPRPRPRPCNCPRP	-0.0499
RRIRLRPPRLPRPRPRPSWTPRP	-0.0555
RRIRRRPPRLPRPRPRPESPPRP	0.5
RRIRQRPPRLPRPRPRPQRTPRP	0.0128
RRIRHRPPRLPRPRPRPTYDPRP	-0.0607
RRIRTRPPRLPRPRPRPSNQPRP	-0.14
RRIRLRPPRLPRPRPRPFVVPRP	-0.236
RRIRRRPPRLPRPRPRPSPLPRP	0.479
RRIRARPPRLPRPRPRPIMVPRP	-0.146

Sequence	shrunken log2 fold change
RRIRLRPPRLPRPRPRPSSHPRP	-0.196
RRIRGRPPRLPRPRPRPIENPRP	0.745
RRIRGRPPRLPRPRPRPNKNPRP	0.3
RRIRMRPPRLPRPRPRPYYAPRP	-0.948
RRIRDRPPRLPRPRPRPGRFPRP	0.315
RRIRHRPPRLPRPRPRPHNNPRP	-0.714
RRIRPRPPRLPRPRPRPAPIPRP	0.0955
RRIRWRPPRLPRPRPRPFDSPRP	-0.124
RRIRHRPPRLPRPRPRPRRTPRP	0.0506
RRIRYRPPRLPRPRPRPYAYPRP	-0.948
RRIRWRPPRLPRPRPRPWMAPRP	0.0321
RRIRARPPRLPRPRPRPAKQPRP	-0.197
RRIRTRPPRLPRPRPRPWEHPRP	-0.069
RRIRIRPPRLPRPRPRPVYAPRP	-0.517
RRIRQRPPRLPRPRPRPIIHPRP	-0.054
RRIRRRPPRLPRPRPRPFQWPRP	0.194
RRIRWRPPRLPRPRPRPIPPPRP	0.101
RRIRQRPPRLPRPRPRPIDLPRP	-0.194
RRIRCRPPRLPRPRPRPLGNPRP	-0.229
RRIRKRPPRLPRPRPRPHEIPRP	0.704
RRIRCRPPRLPRPRPRPKGEPRP	0.0643
RRIRRRPPRLPRPRPRPPGIPRP	0.612
RRIRGRPPRLPRPRPRPFGIPRP	-0.0144
RRIRPRPPRLPRPRPRPWDFPRP	0.122
RRIRSRPPRLPRPRPRPVAFPRP	0.0876

Sequence	shrunken log2 fold change
RRIRCRPPRLPRPRPRPFTTPRP	-0.286
RRIRNRPPRLPRPRPRPAWYPRP	-0.178
RRIRSRPPRLPRPRPRPPSGPRP	0.489
RRIRIRPPRLPRPRPRPKQAPRP	0.0872
RRIRCRPPRLPRPRPRPGRKPRP	0.0644
RRIRRRPPRLPRPRPRPASEPRP	0.182
RRIRQRPPRLPRPRPRPKIPPRP	-0.0111
RRIRFRPPRLPRPRPRPLSCPRP	-0.73
RRIRFRPPRLPRPRPRPNRKPRP	-0.173
RRIRERPPRLPRPRPRPYRLPRP	-0.102
RRIRPRPPRLPRPRPRPCMTPRP	-0.106
RRIRRRPPRLPRPRPRPGWNPRP	0.257
RRIRTRPPRLPRPRPRPKLRPRP	-0.0516
RRIRVRPPRLPRPRPRPKPIPRP	-0.0649
RRIRVRPPRLPRPRPRPGVLPRP	0.0138
RRIRDRPPRLPRPRPRPATQPRP	0.52
RRIRMRPPRLPRPRPRPYQWPRP	-0.055
RRIRHRPPRLPRPRPRPACAPRP	0.436
RRIRTRPPRLPRPRPRPTCEPRP	0.125
RRIRRRPPRLPRPRPRPDPHPRP	0.296
RRIRIRPPRLPRPRPRPLEAPRP	-0.118
RRIRLRPPRLPRPRPRPYGQPRP	-0.0159
RRIRVRPPRLPRPRPRPWQLPRP	-0.421
RRIRCRPPRLPRPRPRPETYPRP	-0.34
RRIRCRPPRLPRPRPRPRHQPRP	0.18

Sequence	shrunken log2 fold change
RRIRDRPPRLPRPRPRPMGMPRP	-0.069
RRIRGRPPRLPRPRPRPNYTPRP	-0.338
RRIRCRPPRLPRPRPRPEHKPRP	-0.221
RRIRHRPPRLPRPRPRPMDNPRP	-0.262
RRIRCRPPRLPRPRPRPERPPRP	0.777
RRIRTRPPRLPRPRPRPIVQPRP	0.0444
RRIRSRPPRLPRPRPRPSVIPRP	-0.602
RRIRKRPPRLPRPRPRPNHVPRP	0.0656
RRIRFRPPRLPRPRPRPRVAPRP	0.439
RRIRDRPPRLPRPRPRPVEMPRP	-0.0847
RRIRRRPPRLPRPRPRPIDFPRP	0.137
RRIRARPPRLPRPRPRPCNGPRP	-0.139
RRIRHRPPRLPRPRPRPNCNPRP	-0.589
RRIRPRPPRLPRPRPRPGPKPRP	0.394
RRIRDRPPRLPRPRPRPVYHPRP	-0.0857
RRIRFRPPRLPRPRPRPKIGPRP	-0.0769
RRIRKRPPRLPRPRPRPDGTPRP	0.293
RRIRARPPRLPRPRPRPSAPPRP	0.397
RRIRCRPPRLPRPRPRPDIAPRP	0.38
RRIRKRPPRLPRPRPRPERVPRP	0.281
RRIRERPPRLPRPRPRPRKWPRP	0.316
RRIRPRPPRLPRPRPRPCCSPRP	-0.556
RRIRKRPPRLPRPRPRPTAQPRP	1.88
RRIRQRPPRLPRPRPRPLVQPRP	-0.361
RRIRIRPPRLPRPRPRPPDTPRP	-0.116

Sequence	shrunken log2 fold change
RRIRCRPPRLPRPRPRPCRLPRP	-0.3
RRIRCRPPRLPRPRPRPRVEPRP	0.0473
RRIRYRPPRLPRPRPRPCWSPRP	-0.768
RRIRRRPPRLPRPRPRPEIHPRP	-0.265
RRIRNRPPRLPRPRPRPGWSPRP	0.2
RRIRWRPPRLPRPRPRPLPNPRP	0.783
RRIRPRPPRLPRPRPRPDNRPRP	0.0191
RRIRGRPPRLPRPRPRPFFYPRP	0.539
RRIRHRPPRLPRPRPRPQSNPRP	-0.288
RRIRTRPPRLPRPRPRPLTPPRP	-0.0473
RRIRHRPPRLPRPRPRPAMLPRP	-0.168
RRIRKRPPRLPRPRPRPPVTPRP	0.39
RRIRERPPRLPRPRPRPMSGPRP	0.0249
RRIRPRPPRLPRPRPRPSVVPRP	-0.162
RRIRNRPPRLPRPRPRPWPPPRP	0.692
RRIRRRPPRLPRPRPRPWLTPRP	-0.245
RRIRIRPPRLPRPRPRPCPHPRP	-0.143
RRIRFRPPRLPRPRPRPLECPRP	-0.0348
RRIRQRPPRLPRPRPRPSYSPRP	-0.298
RRIRGRPPRLPRPRPRPLVKPRP	0.546
RRIRIRPPRLPRPRPRPLFWPRP	-0.145
RRIRTRPPRLPRPRPRPYLCPRP	-0.189
RRIRDRPPRLPRPRPRPMHSPRP	0.117
RRIRCRPPRLPRPRPRPQPKPRP	0.273
RRIRYRPPRLPRPRPRPYGVPRP	-0.00992
